Measurements published in paper PMC7515702.

Tests used:
Test in all cases: fluorescence polarization
Settings in all cases: no NAD+, 250 mM NaCl; Kd: 5 nM probe, 12 mM HEPES pH 8.0, 250 mM NaCl, 4% glycerol, 5.7 mM beta-mercaptoethanol, 0.05 mg/ml BSA, 30 min RT. Competition: 40 nM PARP1, 20 nM probe …
PARP1 H862A H862A = PARP1 H862A H862A (UniProt P09874)
PARP1 H862D H862D = PARP1 H862D H862D (UniProt P09874)
PARP1 E988K E988K = PARP1 E988K E988K (UniProt P09874)
PARP1 WT = PARP1 WT (UniProt P09874)
PARP1 WT, sequence (P09874 whole entry): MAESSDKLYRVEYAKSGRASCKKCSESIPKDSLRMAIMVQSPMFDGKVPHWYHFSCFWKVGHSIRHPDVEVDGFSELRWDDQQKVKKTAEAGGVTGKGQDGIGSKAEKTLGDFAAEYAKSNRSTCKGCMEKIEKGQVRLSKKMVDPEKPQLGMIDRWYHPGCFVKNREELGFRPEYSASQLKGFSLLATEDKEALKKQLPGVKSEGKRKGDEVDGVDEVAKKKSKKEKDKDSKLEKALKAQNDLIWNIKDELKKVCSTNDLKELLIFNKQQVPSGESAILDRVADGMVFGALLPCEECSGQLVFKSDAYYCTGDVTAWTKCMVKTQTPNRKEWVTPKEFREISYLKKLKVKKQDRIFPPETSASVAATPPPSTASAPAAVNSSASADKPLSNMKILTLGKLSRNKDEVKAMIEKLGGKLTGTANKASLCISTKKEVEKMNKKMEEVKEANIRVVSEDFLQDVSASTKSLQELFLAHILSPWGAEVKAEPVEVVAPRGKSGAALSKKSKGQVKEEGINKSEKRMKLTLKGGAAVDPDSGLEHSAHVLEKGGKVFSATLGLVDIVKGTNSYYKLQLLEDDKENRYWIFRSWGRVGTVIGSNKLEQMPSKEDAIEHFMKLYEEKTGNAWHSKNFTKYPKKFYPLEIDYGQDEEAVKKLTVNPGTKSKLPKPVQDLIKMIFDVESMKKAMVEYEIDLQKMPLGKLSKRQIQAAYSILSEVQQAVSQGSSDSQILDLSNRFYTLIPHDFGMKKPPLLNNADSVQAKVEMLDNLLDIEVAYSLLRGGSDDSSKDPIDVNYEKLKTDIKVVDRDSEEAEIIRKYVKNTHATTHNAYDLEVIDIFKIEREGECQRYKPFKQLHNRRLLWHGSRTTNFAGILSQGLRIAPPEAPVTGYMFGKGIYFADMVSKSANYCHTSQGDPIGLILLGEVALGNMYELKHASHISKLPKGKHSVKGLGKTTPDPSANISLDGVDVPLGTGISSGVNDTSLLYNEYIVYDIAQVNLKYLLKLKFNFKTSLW

PARP1 H862A H862A, sequence (P09874 whole entry H862A): as the sequence (P09874 whole entry) above, with H862A counted along it
PARP1 H862D H862D, sequence (P09874 whole entry H862D): as the sequence (P09874 whole entry) above, with H862D counted along it
PARP1 E988K E988K, sequence (P09874 whole entry E988K): as the sequence (P09874 whole entry) above, with E988K counted along it

GCTGAGCTTCTGGTGAAGCTCAGCTCGCGGCAGCTGGTGCTGCCGCGA [nicked dumbbell DNA (SSB probe)]
Kd (PARP1 H862A H862A): 176 nM | Kd (PARP1 H862D H862D): 11.2 nM | Kd (PARP1 E988K E988K): 7.4 nM | Kd (PARP1 WT): 122 nM
